Measurements as given in publication PMC1935004.

Tests used:
[1] = target: T1, SAMecI-NTD (Staphylococcus aureus, UniProt P68261 1-83); assay: NMR titration
T1 sequence: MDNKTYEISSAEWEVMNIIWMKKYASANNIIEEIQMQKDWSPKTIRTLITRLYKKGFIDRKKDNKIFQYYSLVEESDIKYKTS

[2] = target: T2, BLBlaI-NTD (Bacillus licheniformis, UniProt P06555 1-82); assay: NMR titration
T2 sequence: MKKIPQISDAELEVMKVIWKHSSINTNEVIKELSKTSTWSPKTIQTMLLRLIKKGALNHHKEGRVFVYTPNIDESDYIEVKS

B1: 1/2OP1blaP (dsDNA)
DNA 1: AAAGTATTACAT
DNA 2: ATGTAATACTTT
How did the Kd [1] turn out when B1 was run?
The Kd was 860 ± 80 µM.

And the Kd [2]?
Its Kd is 190 ± 50 µM.
